{"source": "paper PMC12469859", "about": "(Structure (London, England : 1993), 2025)", "binders": {"B1": {"name": "Neisseria gonorrhoeae BamD (NgBamD) (natural protein, N. gonorrhoeae FA1090, UniProt Q50985 17-267, looked up)", "chain": "CATQGTADKDAQITQDWSVEKLYAEAQDELNSSNYTRAVKLYEILESRFPTSRHARQSQLDTAYAYYKDDEKDKALAAIERFRRLHPQHPNMDYALYLRGLVLFNEDQSFLNKLASQDWSDRDPKANREAYQAFAELVQRFPNSKYAADATARMVKLVDALGGNEMSVARYYMKRGAYIAAANRAKKIIGSYQNTRYVEESLAILELAYKKLDKPQLAADTRRVLETNFPKSPFLTHAWQPDDMPWWRYWH"}, "B2": {"name": "Neisseria gonorrhoeae BamC (NgBamC), with the HG2 domain (natural protein, N. gonorrhoeae FA1090, UniProt A0ACH0F7W2 42-398, looked up)", "chain": "CSGSKTEQPKLDYQSRSHRLIKLEVPPDLNNPDQGNLYRLPAGSGAVRASDLEKRRTPAVQQPADAEVLKSVKGVRLERDGSQRWLVVDGKSPAEIWPLLKAFWQENGFDIESEEPAIGQMETEWAENRAKIPQDSLRRLFDTVGLGGIYSTGERDKFIVRIEQGKNGVSDIFFAHKAMKEVYGDKNKDTTMWQPSASDPNLEAAFLTRFMQYLGVDGRQAENALAKKPTLPAANEMARIEGKSLIVFGDYGRNWRRTGLALDRIGLTVVGQNTERHAFLVQKAPNESNAVTEQKPGLFKRLLGKGKAEKPAEQPELIVYAEPVADGSRIVLLNKDGSAYAGKDASALLGKLHSELR"}, "B3": {"name": "Neisseria gonorrhoeae BamA (NgBamA) (natural protein)", "chain": "FTIQDIRVEGLQRTEPSTVFNYLPVKVGDTYNDTHGSAIIKSLYATGFFDDVRVETADGQLLLTVIERPTIGSLNITGAKMLQNDAIKKNLESFGLAQSQYFNQATLNQAVAGLKEEYLGRGKLNIQITPKVTKLARNRVDIDITIDEGKSAKITDIEFEGNQVYSDRKLMRQMSLTEGGIWTWLTRSDRFDRQKFAQDMEKVTDFYQNNGYFDFRILDTDIQTNEDKTRQTIKITVHEGGRFRWGKVSIEGDTNEVPKAELEKLLTMKPGKWYERQQMTAVLGEIQNRMGSAGYAYSEISVQPLPNAGTKTVDFVLHIEPGRKIYVNEIHITGNNKTRDEVVRRELRQMESAPYDTSKLQRSKERVELLGYFDNVQFDAVPLAGTPDKVDLNMSLTERSTGSLDLSAGWVQDTGLVMSAGVSQDNLFGTGKSAALRASRSKTTLNGSLSFTDPYFTADGVSLGYDIYGKAFDPRKASTSVKQYKTTTAGGGVRMGIPVTEYDRVNFGLAAEHLTVNTYNKAPKRYADFIRKYGKTDGADGSFKGLLYKGTVGWGRNKTDSASWPTRGYLTGVNAEIALPGSKLQYYSATHNQTWFFPLSKTFTLMLGGEVGIAGGYGRTKEIPFFENFYGGGLGSVRGYESGTLGPKVYDEYGEKISYGGNKKANVSAELLFPMPGAKDARTVRLSLFADAGSVWDGRTYTAAENGNNKSVYSENAHKSTFTNELRYSAGGAVTWLSPLGPMKFSYAYPLKKKPEDEIQRFQFQLGTTF"}}, "target": "T1, Neisseria gonorrhoeae BamE (NgBamE) with a C-terminal 10x histidine tag (N. gonorrhoeae FA1090, UniProt Q5F5Y8 18-125)", "T1 sequence (looked up)": "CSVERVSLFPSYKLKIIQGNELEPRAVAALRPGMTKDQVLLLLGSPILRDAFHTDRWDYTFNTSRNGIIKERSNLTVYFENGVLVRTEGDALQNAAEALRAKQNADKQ", "test": "co-purification"}
{"binder": "B1", "values": [{"measurement": "stoichiometry N", "result": 1}]}
{"binder": "B2", "values": [{"measurement": "stoichiometry N", "result": 1}]}
{"binder": "B3", "values": [{"measurement": "stoichiometry N", "result": 1}]}
